# Experimental data as given in PMC6601556.
# How the values were obtained:
# Assay in all cases: SPR
# [1] = target: 337_1_C08 variant VH K5T8 / VL 9
# [2] = target: 337_1_C08 variant VH K5E3 / VL 61
# [3] = target: 337_1_C08 variant VH K5T8 / VL 6
# [4] = target: 337_1_C08 variant VH H5E2 / VL 23
# [5] = target: 337_1_C08 variant VH H5E2 / VL 2
substance,measurement,setting,value
Monomeric human PD-1 rCD4 antigen (from UniProt Q15116 25-288) (receptor),Kd,[1],2.9 nM
same,Kd,[2],4.8 nM
same,Kd,[3],9 nM
same,Kd,[4],54 nM
same,Kd,[5],30 nM
